Tested on: Bacillus subtilis
Experiment: cleaved RNA product abundance (RNA/gDNA barcode ratio) relative to median wild-type variant (ratio to wild type); higher = more accumulation of the downstream cleavage product
In short: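 Cleaved product abundance for each construct is its RNA-to-gDNA barcode ratio, scaled to the median construct carrying the unmutated site. Cleaved RNA was isolated on a gel, reverse transcribed and barcode-sequenced, with genomic DNA barcodes sequenced alongside and UMIs collapsed. The reporters were truncated aprE or tetM mRNAs with barcoded, mutagenized RNase Y cleavage-site windows integrated into the B. subtilis chromosome, and cultures grew in LB at 37°C from OD600 0.0003 to 0.3.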

[1] = experiment (reporter, strain, medium): exp 2b: truncated aprE reporter, strain BJT200, cleavage site: cggR-gapA (positions -7 to +36 mutated)
[2] = experiment (reporter, strain, medium): exp 4a: truncated aprE reporter, strain BJT201 with 2% xylose (RNase J1 expressed), cleavage site: cggR-gapA (positions -7 to +36 mutated)
[3] = experiment (reporter, strain, medium): exp 8a: truncated aprE reporter, strain BJT201 with 2% xylose (RNase J1 expressed), cleavage site: glnRA (positions -5 to +31 mutated)
[4] = experiment (reporter, strain, medium): exp 6: tetM reporter, strain 168, cleavage site: cggR-gapA (positions -7 to +36 mutated)

Sequence	cleaved RNA product abundance [1]	cleaved RNA product abundance [2]	cleaved RNA product abundance [3]	also measured
ACAGACGAAGGAGCCGCAAAGAAGTTATTAAGGGTTGATTAATCCCTCAATATAAATATCTCTCACTTATTTAAA	0.287	0.409		
CGACATGTCCCGCTTCTTTCATTAATCCGTTAGCAACTGTTTTGCTATAAACATTTATCTTTTAAGAGGAGGAAT			0.717	
ACAGACGAAGGAGCCGCAAAGAAGTTATTAAGGGATGAATTATCCCTCAATATATATATCTCTCACTTATTTAAA		0.616		
CGACATGTCCCGCTTCTTTCATTAATCCGTTAGCAACTGTTTTTCTATATACATTTAACTTTTAAGAGGAGGAAT			0.675	
ACAGACGAAGGAGCCGCAAAGAAGTTATTAATGGATCAATAATCCCTCAATATAAATATCTCTCACTTATTTAAA	0.0839	0.127		
ACAGACGAAGGAGCCGCAAAGAAGTTATTAAGGGATGAATAATCCTTCATTATAAATATCTCTCACTTATTTAAA		0.313		
ACAGACGAAGGAGCCGCAAAGAATTTATTAAGGGATGAATAATCCCCCAATATAAATATCTCTCACTTATTTAAA	0.189	0.202		
ACAGACGAAGGAGCCGCAAAGAAGTTATTAAGGGATGAAAAATACCTCAATATAAATATCTCTCACTTATTTAAA	0.114	0.169		
ACAGACGAAGGAGCCGCAAAGAAGTTATTAAGAGATGAATAATCCCTTAATATAAATATCTCTCACTTATTTAAA	0.727	0.431		
CGACATGTCCCGCTTCTTTCATTACTCCGTTAGCAACTGTTTTCCTATATACATTTACCTTTTAAGAGGAGGAAT			0.679	
ACAGACGAAGGAGCCGCAAAGAAGTTATTAAGTGATGAATATTCCCTAAATATAAATATCTCTCACTTATTTAAA	0.115			
ACAGACGAAGGAGCCGCAAAGAAGTTATTAAGCGATGAATAATCCCTCAAGATAAATATCTCTCACTTATTTAAA	0.0861	0.0789		
ACAGACGAAGGAGCCGCAAAGAACTTATTAAGGGATGAATAATCCCTCAAAATAAATATCTCTCACTTATTTAAA		0.208		
ACAGACGAAGGAGCCGCAAAAAAGTTATTAAGGGATGAATAATCCCTCTATATAAATATCTCTCACTTATTTAAA		0.613		
CGACATGTCCCGCTTCTTTCATTAATCCGTAAGCAACTGTTTTGCTATATACTTTTACCTTTTAAGAGGAGGAAT			0.307	
ACAGACGAAGGAGCCGCAAAGAAGTTATTAAGGGATGAATAATCCCGCAATATATATATCTCTCACTTATTTAAA		0.139		
ACAGACGAAGGAGCCGCAAAGAAGTTATTAAGGGATTAATATTCCCTCAATATAAATATCTCTCACTTATTTAAA		1.13		
ACAGACGAAGGAGCCGCGAAGAAGTTATTAAGGGATGAATAATCCCTCAATATAAATATCTCTCACTTATTTAAA	0.919	0.87		cleaved RNA product abundance [4]: 0.885
ACAGACGAAGGAGCCGCAAAGAAGTTATTAAGGTATGAATATTCCCTCAATATAAATATCTCTCACTTATTTAAA		0.0859		
ACAGACGAAGGAGCCGCAAATAAGTTATTAAGGGATGAATAATCCCACAATATAAATATCTCTCACTTATTTAAA	0.233	0.187		

Sequence	cleaved RNA product abundance [1]	cleaved RNA product abundance [2]	cleaved RNA product abundance [3]	also measured
ACAGACGAAGGAGCCGCAAAGAAGTAATTAAGAGATGAATAATCCCTCAATATAAATATCTCTCACTTATTTAAA	0.0957	0.141		
ACAGACGAAGGAGCCGCAAAGAAGTTATTAAGGTATGAATAATCCCTCAATATAATTATCTCTCACTTATTTAAA		0.0923		
CGACATGTCCCGCTTCTTTCATTAATCCGTTAGCAACTGTTTTGCTATATACATTTCCCTTTTAAGAGGAGGAAT			0.531	
ACAGACGAAGGAGCCGCAAAGAAGTTATTAAGGGCTGAATAATCCCACAATATAAATATCTCTCACTTATTTAAA		0.0873		
CGACATGTCCCGCTTCTTTCATTAATCCGTTAGCAAATGTTTTGCTATATACATTTAACTTTTAAGAGGAGGAAT			1.03	
CGACATGTCCCGCTTCTTTCATTAATCCGTTAGCAACTGTTTTTCTAGATACATTTACCTTTTAAGAGGAGGAAT			0.378	
ACAGACGAAGGAGCCGCAAAGAAGTTATTAACGGATGAAAAATCCCTCAATATAAATATCTCTCACTTATTTAAA	0.104	0.133		
ACAGACGAAGGAGCCGCAACGAAGTTATTAAGGGATGAATTATCCCTCAATATAAATATCTCTCACTTATTTAAA		0.91		
CGACATGTCCCGCTTCTTTCATTAATCCGTTAGAAAATGTTTTGCTATATACATTTACCTTTTAAGAGGAGGAAT			0.396	
ACAGACGAAGGAGCCGCAAAGAAGTTATTAAAGGATGAATAATCTCTCAATATAAATATCTCTCACTTATTTAAA		0.149		
ACAGACGAAGGAGCCGCCAAGAAGTTATTAAGGGATGAATAATCCCTCAATATAAATATCTCTCACTTATTTAAA	0.985	0.872		
CGACATGTCCCGCTTCTTTCATTAATCCGTTTGCATCTGTTTTGCTATATACATTTACCTTTTAAGAGGAGGAAT			0.274	
ACAGACGAAGGAGCCGCAAAGAAGTTATTAAGGGTTGAACAATCCCTCAATATAAATATCTCTCACTTATTTAAA	0.387			
ACAGACGAAGGAGCCGCAAAGAAGTTATTAAGGGATGAATAATCCCTCTATATATATATCTCTCACTTATTTAAA		0.418		
ACAGACGAAGGAGCCGCAAAGAAGATATTAAGGGATGAATGATCCCTCAATATAAATATCTCTCACTTATTTAAA		0.565		
ACAGACGAAGGAGCCGCAAAAAAGTTATTAAGGGATGAATAAGCCCTCAATATAAATATCTCTCACTTATTTAAA	0.639	0.793		
CGACATGTCCCGCTTCTTTCATTAAACTGTTAGCAACTGTTTTGCTATATACATTTACCTTTTAAGAGGAGGAAT			1.02	
ACAGACGAAGGAGCCGCAACGAAGTTATTAAGGGACGAATAATCCCTCAATATAAATATCTCTCACTTATTTAAA		0.585		
ACAGACGAAGGAGCCGCAAAGAAGTTACTAAGGGATGAATAATCCCTAAATATAAATATCTCTCACTTATTTAAA		0.253		
ACAGACGAAGGAGCCGCAAAGAACCTATTAAGGGATGAATAATCCCTCAATATAAATATCTCTCACTTATTTAAA	0.18	0.309		

Sequence	cleaved RNA product abundance [1]	cleaved RNA product abundance [2]	cleaved RNA product abundance [3]	also measured
ACAGACGAAGGAGCCGCAAAGAAGTTATTAAGGCATGAAAAATCCCTCAATATAAATATCTCTCACTTATTTAAA	0.0832	0.0945		
CGACATGTCCCGCTTCTTTCATTATTCCGTTAGCAACTGTTTTGCTATATAAATTTACCTTTTAAGAGGAGGAAT			0.753	
CGACATGTCCCGCTTCTTTCATTAATCCGTTAGCAACTGTTTTTGTATATACATTTACCTTTTAAGAGGAGGAAT			0.494	
ACAGACGAAGGAGCCGCAAAGAAGTTTTTAAGGGATGAATAATCCCTCAATATAAACATCTCTCACTTATTTAAA		0.208		
ACAGACGAAGGAGCCGCAAACTAGTTATTAAGGGATGAATAATCCCTCAATATAAATATCTCTCACTTATTTAAA		0.991		
CGACATGTCCCGCTTCTTTCATTAATCCGTTAGCAACTGTTATTCTATATACATTTACCTTTTAAGAGGAGGAAT			0.506	
CGACATGTCCCGCTTCTTTCATTAATCCGTTAGCAACTGTTTTGCTCTATACATATACCTTTTAAGAGGAGGAAT			0.176	
ACAGACGAAGGAGCCGCAAAGAAGTTATTAAGAGATGCATAATCCCTCAATATAAATATCTCTCACTTATTTAAA	0.117	0.158		
ACAGACGAAGGAGCCGCAAAGAAGTTATTAAGGGATGAATAATCCTTCAATATAATTATCTCTCACTTATTTAAA	0.219	0.387		
CGACATGTCCCGCTTCTTTCATTAATCAGTTAGCAACTTTTTTGCTATATACATTTACCTTTTAAGAGGAGGAAT			1.18	
ACAGACGAAGGAGCCGCAAAGAACTTATAAAGGGATGAATAATCCCTCAATATAAATATCTCTCACTTATTTAAA	0.24	0.263		
CGACATGTCCCGCTTCTTTCATTAATCCGTTAGCAACTGTCTTGCTATCTACATTTACCTTTTAAGAGGAGGAAT			0.0931	
ACAGACGAAGGAGCCGCAAAGAAGTTATTAAGGGATTAATAATCCCTCAATATATATATCTCTCACTTATTTAAA		0.957		
ACAGACGAAGGAGCCGCAAAGCAGTTATTAAGGGATGAATAATCCCTCAATATAAATATCTCTCACTTATTTAAA	0.905	0.958		cleaved RNA product abundance [4]: 0.944
ACAGACGAAGGAGCCGCAAAGAAGTTATTAAGGGTTGAAAAATCCCTCAATATAAATATCTCTCACTTATTTAAA		0.565		
ACAGACGAAGGAGCCGAATAGAAGTTATTAAGGGATGAATAATCCCTCAATATAAATATCTCTCACTTATTTAAA				cleaved RNA product abundance [4]: 0.727
ACAGACGAAGGAGCCGCAAAGGAGTTATTAAGGGATGACTAATCCCTCAATATAAATATCTCTCACTTATTTAAA	0.423	0.596		
CGACATGTCCCGCTTCTTTCATTAATCCGTTAGCAACTGTTTTGCTATATACATTGACCATTTAAGAGGAGGAAT			0.525	
CGACATGTCCCGCTTCTTTCATTAATCCGTTAGCAACTGTTTTGTTATAAACATTTACCTTTTAAGAGGAGGAAT			0.322	

From the supplement of paper PMC11780869
